The numbers were not newly measured in paper PMC4346141, which cites them from elsewhere.

A value given as a limit tells only on which side of the number the result lay.

For data set [1], the target named is IL12Rβ1 monomer (Homo sapiens) (UniProt P42701).
Data set [2] addresses IL12Rβ2 (Homo sapiens) (UniProt Q99665).
Data set [3] has as its target IL12Rβ1 (Homo sapiens) (UniProt P42701).
The target of data set [4] is IL12Rβ1 clone 2 (Mus musculus) (UniProt Q60837).
The target in data set [5] is IL12Rβ1 clone 3 (Mus musculus) (UniProt Q60837).
Chain of IL12Rβ1 clone 3 (Mus musculus) (Q60837 20-565): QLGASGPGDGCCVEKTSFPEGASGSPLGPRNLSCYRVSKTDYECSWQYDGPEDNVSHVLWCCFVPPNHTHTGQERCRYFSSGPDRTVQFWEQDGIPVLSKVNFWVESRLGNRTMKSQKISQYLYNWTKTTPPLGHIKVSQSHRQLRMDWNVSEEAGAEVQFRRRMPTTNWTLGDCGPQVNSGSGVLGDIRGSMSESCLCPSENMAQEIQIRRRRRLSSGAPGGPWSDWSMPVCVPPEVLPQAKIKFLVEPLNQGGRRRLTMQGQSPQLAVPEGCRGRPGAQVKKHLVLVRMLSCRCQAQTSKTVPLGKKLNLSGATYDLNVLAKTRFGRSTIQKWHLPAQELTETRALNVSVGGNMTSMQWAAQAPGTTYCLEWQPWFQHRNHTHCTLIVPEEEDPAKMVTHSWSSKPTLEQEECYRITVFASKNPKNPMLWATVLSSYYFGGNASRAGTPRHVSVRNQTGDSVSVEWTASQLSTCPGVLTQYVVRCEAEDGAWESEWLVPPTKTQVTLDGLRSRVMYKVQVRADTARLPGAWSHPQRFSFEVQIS

Chain of IL12 (P29459 23-219): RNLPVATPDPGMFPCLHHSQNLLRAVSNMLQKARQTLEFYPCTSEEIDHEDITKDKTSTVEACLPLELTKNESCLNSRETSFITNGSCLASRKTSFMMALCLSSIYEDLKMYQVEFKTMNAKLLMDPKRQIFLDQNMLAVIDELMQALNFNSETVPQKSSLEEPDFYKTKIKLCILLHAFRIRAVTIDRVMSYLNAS
Chain of IL12 (P29460 23-328, further chain): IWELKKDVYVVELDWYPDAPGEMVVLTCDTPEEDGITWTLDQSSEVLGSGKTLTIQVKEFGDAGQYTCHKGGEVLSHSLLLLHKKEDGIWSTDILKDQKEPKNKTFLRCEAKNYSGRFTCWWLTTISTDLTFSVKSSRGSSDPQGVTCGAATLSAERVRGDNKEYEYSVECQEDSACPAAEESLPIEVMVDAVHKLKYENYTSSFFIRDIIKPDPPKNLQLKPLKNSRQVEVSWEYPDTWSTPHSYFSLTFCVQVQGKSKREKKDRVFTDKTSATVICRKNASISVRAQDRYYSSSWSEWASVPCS
Chain of IL12Rβ2 (Homo sapiens) (Q99665 24-622): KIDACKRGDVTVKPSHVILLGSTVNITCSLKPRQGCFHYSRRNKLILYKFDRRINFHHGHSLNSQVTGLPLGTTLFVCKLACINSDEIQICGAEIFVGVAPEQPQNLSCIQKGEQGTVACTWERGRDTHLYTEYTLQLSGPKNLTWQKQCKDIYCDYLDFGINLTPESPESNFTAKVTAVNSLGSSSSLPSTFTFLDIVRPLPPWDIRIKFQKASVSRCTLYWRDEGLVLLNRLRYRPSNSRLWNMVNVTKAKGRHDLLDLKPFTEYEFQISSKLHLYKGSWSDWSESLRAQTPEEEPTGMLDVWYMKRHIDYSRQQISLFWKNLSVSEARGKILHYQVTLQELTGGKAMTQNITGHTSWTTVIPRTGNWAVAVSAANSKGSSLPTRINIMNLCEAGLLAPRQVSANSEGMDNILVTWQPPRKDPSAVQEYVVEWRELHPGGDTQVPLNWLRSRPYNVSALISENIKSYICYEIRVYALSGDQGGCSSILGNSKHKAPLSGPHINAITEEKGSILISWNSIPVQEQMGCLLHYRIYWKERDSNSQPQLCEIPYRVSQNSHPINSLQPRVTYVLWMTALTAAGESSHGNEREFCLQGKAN
Chain of IL12Rβ1 clone 2 (Mus musculus) (Q60837 20-565): as the sequence (Q60837 20-565) above

In the case of IL12 (from UniProt P29459), the Kd in data set [1] was over 50 nM; in data set [2], 5 nM; in data set [3], 3 nM.

For IL12 (from UniProt P43431), the Kd in data set [4] is 0.899 nM; in data set [5] it was 1.3 nM.
